Common to all, as to format: biochemical
In one series the target is T1, AtHNL (Arabidopsis thaliana, UniProt Q9LFT6).
T1 construct: made in house; host or cells: E. coli BL21(DE3), plasmid pAtHNL (pET28a, NcoI/XhoI)
T1 sequence (Q9LFT6 1-258): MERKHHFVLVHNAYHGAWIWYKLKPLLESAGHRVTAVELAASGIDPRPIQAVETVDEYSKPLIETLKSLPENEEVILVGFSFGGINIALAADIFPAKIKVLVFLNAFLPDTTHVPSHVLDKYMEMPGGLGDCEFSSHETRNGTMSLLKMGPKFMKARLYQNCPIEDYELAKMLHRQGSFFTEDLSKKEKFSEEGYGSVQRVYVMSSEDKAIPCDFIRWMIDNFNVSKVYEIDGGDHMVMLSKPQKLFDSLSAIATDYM
Kind of series: Cleavage of mandelonitrile, determination of liberated benzaldehyde (cell test). Conditions: cleavage reaction of cyanohydrin by AtHNL, citrate-phosphate buffer pH 5. As for the experimental part:
Ia) Cleavage of Mandelonitrile(=Benzaldehyde Cyanohydrin), Determination of Liberated Benzaldehyde (Cell Test):
The protocol employed was based on the test described by Bauer et al in 1999 and was only modified slightly. 700 μl of citrate-phosphate buffer, pH 5 (48.5 mL 0.1M citric acid, 51.5 mL 0.2 M dipotassium hydrogen phosphate, qsp 100 ml water) was mixed with 100 μl of enzyme sample in a quartz glass cell and the reaction was started with 200 μl of mandelonitrile solution (60 mM in citrate-phosphate buffer, pH 3.5 (1.82 mL 0.1 M citric acid, 1.06 mL 0.1 M disodium hydrogen phosphate, qsp 100 mL water). The increase in the extinction at 280 nm was monitored for 2 min. It was proportional to the benzaldehyde concentration in the sample. Self-degradation of the cyanohydrin was determined in a control sample without enzyme and subtracted from the values measured for the enzyme sample. In order to determine the remaining activity in the course of the stability tests described in Example 5d, a slightly altered procedure was used: 870 μl of citrate buffer (50 mM, pH 4) was supplemented with 30 μl of enzyme sample, the reaction was started by adding 100 μl of mandelonitrile (60 mM in 50 mM of citrate buffer, pH 2) and monitored for 2 minutes at 280 nm. […] The enzyme activity is, however, much lower with this procedure.

A short description of series [1]: HNL activity test of cloned and expressed Arabidopsis proteins resembling MeHNL. The settings on record: cloned, expressed heterologously in E. coli; listed as At5g10300. From the text:
The Arabidopsis thaliana plant (mouse-ear cress) is a model organism (accessible genome, short generation period) and thus has been comprehensively investigated. The genome has been completely sequenced and recorded in sequence databases. Examples of such databases are, for example, the “Genbank” as a collection of all published sequences, or TAIR as a database restricted to a single organism (in this case Arabidopsis). Because of the great strides made in molecular biology, many new sequences are being input into the appropriate databases than can be individually assessed and described. Thus, until now genes which have been identified as true genes but which have not been further investigated have automatically been ascribed types by appropriate computer algorithms because of their similarities to known sequences. Whether the function stated in this description is true, however, must be individually ascertained for each protein. […] The increase in the extinction at 280 nm was monitored for 2 min. […] Self-degradation of the cyanohydrin was determined in a control sample without enzyme and subtracted from the values measured for the enzyme sample. […]

A short description of series [2]: Activity of AtHNL preparations from fed batch fermentation.
Series [3] is described as follows: Demonstration of stereoselectivity (chiral gas chromatography and cleavage test with enantiomerically pure benzaldehyde cyanohydrin).
The mark [4] stands for this setting: after Q-Sepharose, desalting and lyophilization.

The text below walks through data of patent publication US8940516B2, “Method for the synthesis of chiral cyanohydrins via a hydroxynitrile lyase from brassicaceae” (Evocatal GmbH, priority 2006, dated 2015).

“Also recorded” adds a separate entry of the source.

Consider `N#CC(O)c1ccccc1` (stereo not shown) [Benzaldehyde cyanohydrin], for which the “Specify activity (U/mg), Benzaldehyde Test (see Ia above)” value at AtHNL came out at 12.5 U/mg.

B1: AtHNL: hydroxynitrile lyase from Arabidopsis thaliana, polypeptide of the invention, SEQ ID NO: 1 (protein, listed as Arabidopsis thaliana)
chain: MERKHHFVLVHNAYHGAWIWYKLKPLLESAGHRVTAVELAASGIDPRPIQAVETVDEYSKPLIETLKSLPENEEVILVGFSFGGINIALAADIFPAKIKVLVFLNAFLPDTTHVPSHVLDKYMEMPGGLGDCEFSSHETRNGTMSLLKMGPKFMKARLYQNCPIEDYELAKMLHRQGSFFTEDLSKKEKFSEEGYGSVQRVYVMSSEDKAIPCDFIRWMIDNFNVSKVYEIDGGDHMVMLSKPQKLFDSLSAIATDYM
On to B1, for which, in series [1], the “HNL activity (Remarks/misc)” value is recorded as “high activity; also recorded: HNL activity (a poly-”. Further, in series [2] (setting [4]), the activity per lyophilisate is 2.5 U/mg of lyophilisate and the specific activity entry is given as “approximately 40 U/mg protein”. Further, in series [2] (unrefined extract), the specific activity is given as 13.3 U/mg and the volumetric activity entry is “approx 800 U/ml”. Also, in series [3], the stereoselectivity entry is on record as “Only the (R) enantiomer formed or was transformed”.
